The values below are quoted from earlier work in paper PMC5654615.

Read-outs that look alike come from different tables or passages of the source.

The target in data set [1] is TLR4/MD2 complex (Homo sapiens) (UniProt O00206).
The target of another data set is MD2 (Homo sapiens) (UniProt Q9Y6Y9). In words: SPR. (In SPR one partner is held on a chip, and binding of the other changes the refractive index at the surface.)
A further data set deals with TLR4 (Homo sapiens) (UniProt O00206). The experiment in a line: SPR.
Data set [2] concerns the target TLR4/MD2 complex (Homo sapiens) (UniProt O00206). In words: SPR.

Chain of UniProt Q9Y6Y9 (Q9Y6Y9 19-160): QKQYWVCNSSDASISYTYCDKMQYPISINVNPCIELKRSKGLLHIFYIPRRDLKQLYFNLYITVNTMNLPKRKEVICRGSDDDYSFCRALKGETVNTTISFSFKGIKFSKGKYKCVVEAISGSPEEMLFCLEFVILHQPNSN

The Kd is the free concentration of one partner at which half of the binding sites on the other are occupied at equilibrium, for simple one-to-one binding. Regarding HMGB1 (from UniProt P09429), the Kd in data set [1] is 1.5 µM.
On to CIRP (from UniProt Q14011), for which the Kd with MD2 (Homo sapiens) was 0.302 µM; with TLR4 (Homo sapiens) it was 0.617 µM; in data set [2], 0.239 µM.
